Laboratory results from publication PMC4351158 (Structure (London, England : 1993), 2015).

Biological target: the molecule itself
Experiment: crystal structure

B1: wild-type DegS (residues 27-355, without the membrane anchor) (enzyme, E. coli, UniProt P0AEE3 27-355, looked up)
chain: RSLNPLSTPQFDSTDETPASYNLAVRRAAPAVVNVYNRGLNTNSHNQLEIRTLGSGVIMDQRGYIITNKHVINDADQIIVALQDGRVFEALLVGSDSLTDLAVLKINATGGLPTIPINARRVPHIGDVVLAIGNPYNLGQTITQGIISATGRIGLNPTGRQNFLQTDASINHGNSGGALVNSLGELMGINTLSFDKSNDGETPEGIGFAIPFQLATKIMDKLIRDGRVIRGYIGIGGREIAPLHAQGGGIDQLQGIVVNEVSPDGPAANAGIQVNDLIISVDNKPAISALETMDQVAEIRPGSVIPVVVMRDDKQLTLQVTIQEYPATN
- binding result: binds
